According to the nanobody polyreactivity screen of Harvey et al. (2022):

Test: yeast display, Sf9 membrane polyspecificity reagent, FACS + sequencing; frameworks hold sequencing errors
Summary of the method: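 A synthetic nanobody library was expressed on Saccharomyces cerevisiae BJ5465 by galactose induction for 36–48 hours. The library was stained for 1 hour at 4 °C with 10% biotinylated, detergent-solubilized Sf9 membrane reagent and enriched with streptavidin microbeads before FACS. Low and high (top ~1%) gates were set on anti-HA fluorescence for expression and streptavidin fluorescence for reagent binding, and each polyreactivity label reflects the gate of origin.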

Sequence	polyreactivity (PSR sort gate)
QVQLVESGGGIVQAGGSLRLSCAASGRIFPYYDMGWYRQAPGKERELVAAITSSGSTFYADSVKGRFTISRDNAKNTVYLQMNSLKPEDTAVYYCNTRDIRVRPYDYWGQGTQVTVSS	low polyreactivity
QVQLVESGGGIVQAGGSLRLSCAASGRIFSGNAMGWYRQAPGKERELVATISRRGGSTYYADSVKGRFTISRDNAKNTVYLLMNSLKPEDTAVYYCAVDPYAWTKWSTYNYWGQGTQVTVSS	high polyreactivity
QVQLVESGGGIVQAGGSLRLSCAASGRIFVRNAMVWYRQAPGKERELVAAISTNGGSTRYADSVKGRFTISRDNAKNTVYLQMNSLKPEDTAVYYCNAYYSHSPRYLKYDYWGLGTQVTVSS	high polyreactivity
QVQLVESGGGIVQAGGSLRLSCAASGRIFYGYTMGWYRQAPGKERELVASIDYSTGRTYYADSVKGRFTISRDNAKNTVYLLMNSLKPEDTAVYYCNADPNYSFLRYDYWGQGTQVTVSS	high polyreactivity
QVQLVESGGGIVQAGGSLRLSCAASGRIFYYYAMGWYRQAPGKESELVAAISRSGGRTYYADSVKGRFTISRDNAKNTVYLHMNSLKPEDTAVYYCNVVRQGGTLGYDYWGQGTQVTVSS	high polyreactivity
QVQLVESGGGIVQAGGSLRLSCAASGRISAYNAMGWYRQAPGKERELVAAITYDGGSTYYADSVKGRFTISRDNAKNTVYLHMNSLKPEDTAVYYCNAGADSVSFRDGGITTYDYWGQGTQVTVSS	low polyreactivity
QVQLVESGGGIVQAGGSLRLSCAASGRNFGPYTMGWYRQAPGKERELVATISYSGSTTYYSDSVKGRFTISRDNAKNTVYLQMNSLKPEDTAVYYCNAQYYVFITFDYWGQGTKVTVSS	high polyreactivity
QVQLVESGGGIVQAGGSLRLSCAASGRNFIHYAMGGYRQAPGKERELVAAISWGGGRTYYADSEKGRFTISRDNAKNTVYLQMNSLKPEDTAVYYCAAAGRGSGYDYWGQGTQVTVSS	high polyreactivity
QVQLVESGGGIVQAGGSLRLSCAASGRTFDWYAMGWSRQAPGKERELVAAIDSIGGDTYYADSVKGRFTISRDNAKNTVYLQMNSLKPEDTAVYYCAALPWYDWEYEYWGQGTQVTVSS	high polyreactivity
QVQLVESGGGIVQAGGSLRLSCAASGRTFFHYAMGWYRQAPGKERELVAGISSGGRTKYADSVKGRFTISRDNAKNTVYLQMNSLKPEDTAVYYCAASYIVWLTRGAPRKRFDYWGQGTQVTVSS	high polyreactivity
QVQLVESGGGIVQAGGSLRLSCAASGRTFNYYAMGWYRQAPGKEREWVAAISSSGGRTYYADSVKGRFTISRDNAKNTVYLQMNSLKPEDTAVYYCAATGGGYKHWFDYWGQGTQVTVSS	low polyreactivity
QVQLVESGGGIVQAGGSLRLSCAASGRTFRKNAMAWYRQAPGKERELVAAISASGTSTNYADSVKGRFTISRDNAKNTVYLQMISLIPEDTSVYYCDARSYGIYDYWGQGTQVTVSS	high polyreactivity
QVQLVESGGGIVQAGGSLRLSCAASGRTFSIYAMGWYRQAPGKERELVASITNSDGSTYYADSVKGRFTISRDNAKNTVYLQMNSLKPEDTAVYYCNDDSGISRVKYGYWGQATQVTVSS	low polyreactivity
QVQLVESGGGIVQAGGSLRLSCAASGRTFTVYAMGWYRQARGTARELVAAINYSVGSTYYADSVKGRFTISRDNAKNTVYLQMNSLNPEDTAVYYCAADLYHFSYSNSYIRYDYWGQGTQVTVSS	low polyreactivity
QVQLVESGGGIVQAGGSLRLSCAASGRTFWRNTMGWYRQAPGKETELVAAINKPGGSTYYADSVKGRFTISRDNAKNTVYLQMNSLKPEDTAVYYCNALTYQGRHSARYDYWGQGTQVTVSS	high polyreactivity
QVQLVESGGGIVQAGGSLRLSCAASGRTFYRNAMGWYRPAPGKERELFAVISLNGGRTYYADSVKGRFTISRDNAKNTVYLQMNSLKPEDTAVYYCNKLTGPVFTRGFYYWGQGTQVTVSS	high polyreactivity
QVQLVESGGGIVQAGGSLRLSCAASGRTYPGYAMGWYRQAPGKERELVATITFSDGSTYYADSVKGRFTISRDNAKNTVYLQMNSLKPVDTAVYYCNARRSYFLRYGVNYWGQGTQVTVSS	low polyreactivity
QVQLVESGGGIVQAGGSLRLSCAASGSIFGINAMGWNRQAPGKERELVAAITSRGGRTYYADSVKGRFTISRDNAKNTVYLQMNSLKPEDTAVYYCAAATPYLIRYYYWGQGTQVTVSS	high polyreactivity
QVQLVESGGGIVQAGGSLRLSCAASGSIFGSYAMGWYRQAPGKERELVAAITRSGGRTYYADSVKGRFTISRDNAKNTVYLQMNSLKPEDTAVYYCNAKLKLPSGGDYWGQGTQVTVSS	high polyreactivity
QVQLVESGGGIVQAGGSLRLSCAASGSIFYVYAMGWYRQAPGKERELVAAIYSGASTYYADSVKGRFTISRDNAKNTVYLQMNSLKPEDTAVYYCAKRWRRRFVDVWSLYDYWGQGTQVTVSS	low polyreactivity

Sequence	polyreactivity (PSR sort gate)
QVQLVESGGGIVQAGGSLRLSCAASGSIIGPNTMGWYRQAPGKERELVAAIRGGGSTNYADSVKGRFTISRDNAKNTVYLQMNSLKPEDTAVYYCNATWNLFPGVLDRYDYWGQGTQVTVSS	low polyreactivity
QVQLVESGGGIVQAGGSLRLSCAASGSIINGNAMGWDRQAPGKERELVAAITRRGGSTYYADSVKGRFTISRDNAKNTVYLQMNSLKPEDTAVYYCAAEDWLYKRPYKERIVQFYYWGQGTQVTVSS	low polyreactivity
QVQLVESGGGIVQAGGSLRLSCAASGSISAYYAMGWYRQAPGNERELVAAISWNGGRTYYADSVKGRFTISRDNAKNSVYLQMNSLKPEDTAVYYCAASPYYVVSTGGYDYDYWGQGTQVTVSS	high polyreactivity
QVQLVESGGGIVQAGGSLRLSCAASGSISSAYAMGWYRQAPGKERELVAVITSGGSTNYADSVKGRFTISRDNAKNTVYLQMNSLKQEDTAVYYCATPVASVTGYDYWGLGTQVTVSS	low polyreactivity
QVQLVESGGGIVQAGGSLRLSCAASGSTFNANGMGWYRQAPGKERELVAAISWRGSTYYADSVKGRFTISRDNAKNTVYLQMNSLKPEDTAVYYCAAYRYSWSYQYRYGYWGQGTQVTVSS	high polyreactivity
QVQLVESGGGIVQAGGSLRLSCAASGSTFRGNDMGWYRQAPGKERELVASIDWSGGSTYYADSVKGRFTISRDNAKNTVYLQMNSLKPEDTAVYYCAADTSYWYDYYIDYVGYYYWGQGTQVTVAS	high polyreactivity
QVQLVESGGGIVQAGGSLRLSCAASGSTFRGYAMGWYRQAPGKETELVAAITSRGTRTYYADSVKGRFTISRDNSKNTVSLQMNSLKPEDTAVYYCNVVSDIRLYYRYAYDYWGQGTQVTVSS	high polyreactivity
QVQLVESGGGIVQAGGSLRLSCAASGSTLDDYVMGWYRHAPGKDRQLVAAISSSGSGTYYADSVKGRFTISRDNAKNTVYLQMNSLKQEDTAVYYCAAAYSYSGYGYYTYDYWGLGTQVTVSS	low polyreactivity
QVQLVESGGGIVQAGGSLRLSCAASGSTLQYNAMGWYRQAPGKERELVAAITRISGSTYYADSVKGRFTISRDNAKNTVYLQMNSLKPEHTAVYYCAAVSYYYSGYDYWGQGTEVTVSS	high polyreactivity
QVQLVESGGGIVQAGGSLRLSCAASGTFVYYAMVMYRQPPGKERELVAGISDGSSTNYADSVKGRFTISRDNAKNTVYLQMNSLKPEDTAVYYCAKRYYSSGREHGYWGQGTQVTVSS	low polyreactivity
QVQLVESGGGIVQAGGSLRLSCAASGTTIEYNAMGWYRQAPGKERELVASSTNYADSVKGRFTISRDNAKNTVYFQMNILKPEDTAVYYCAREQGVNRNHDYWGQGTQVTVSS	low polyreactivity
QVQLVESGGGIVQAGGSLRLSCAASGYIFDHYAMGWYRQAPGKERELVAAISRSAGSTYYADSVKGRFTISRDNAKNTVYLQMKSLKPEDTAVYYCNAVVAVRSWRKYEYWGQGTQVTVSS	high polyreactivity
QVQLVESGGGIVQAGGSLRLSCASSGFTFNLYAMGWYRHAPGNERELVAAINWSGGTYYADSVKGRFTISRDNAKNNVYLQMKILKPEDTAVYYCNARYVYHSSFAGFDYWGQGTQVTVSS	low polyreactivity
QVQLVESGGGIVQAGGSLRLSCASSGSIFYWYAMGWYRQAPGKERELVAAISRSGGSTYYADSVKGRFTISRDNAKNTVYLQMNSLKPEDTAVYYCATELSYRHGYWGQGTQVTVSS	high polyreactivity
QVQLVESGGGIVQAGGSLRLSCDASGRIIGYYAMGWYRQAPGKERELVAAISRSGARTYYADSVKGRFTISRDNAKNTVYLQMNSLKPEDTAVYYCAAGPAPGHDSWGQGTQVTVSS	high polyreactivity
QVQLVESGGGIVQAGGSLRLSCSASGRNSGVNAMGSYRQAPGKERELVATISGSGGRTYYADSVKERFTISRDNAKNTVYLQMNSLKPEDTAVYYCNTLVQRGGYFSRGFDYWGQGTQVTVSS	low polyreactivity
QVQLVESGGGIVQAGGSLRLSFDASGFLFYSYAMGCYRQAPGKEREFVAAISWSGARTYYPDSVKGRFTISRDNAKNTVYLQMNSLKPEDTAVYYCIAVAFYPRSSRSWRLDYWGQGTQVTVSS	high polyreactivity
QVQLVESGGGIVQAGGSLRLSSAASGINFRYYAMGSSRPAPGKDRELVAVKSRDGTTYYADSVKGRFTISRDNAKNTVYLPMNSLKAADTAVYYCAKKAWVIYNRKFSSGYDYWGQGTQVNVSS	low polyreactivity
QVQLVESGGGIVQAGGSLRLSSAASGSIIFYYAMGWYRQPRGKEREFVAAITRSGVRTYYADSVKGRFTISRDNAKNTVYLQMNSLKPEDTAVYYCNDDYGFYRPVLMGFWGQGTQVTVSS	low polyreactivity
QVQLVESGGGIVQAGGSLRLTCAASGFIFWDYAMGWYRQAPGKERELVAAISDSGGDTYYADSVKGRFTISRDNAKNTVYLQMNSLNPEDTAVYYCASVVELWVFRGQQYDYWGQGTQVTVSS	low polyreactivity
